Measurements reported in US20190062438A1 (CSL, published 2019).
Changes are numbered by the printed parent chain.

Assays:
Experiment in all cases: SPR, kinetics, Fab over captured mutant
[1] = biological target: T1, shCD131 S41A (human, UniProt P32927 17-438)
T1 construct: C-terminal 6xHis
T1 sequence: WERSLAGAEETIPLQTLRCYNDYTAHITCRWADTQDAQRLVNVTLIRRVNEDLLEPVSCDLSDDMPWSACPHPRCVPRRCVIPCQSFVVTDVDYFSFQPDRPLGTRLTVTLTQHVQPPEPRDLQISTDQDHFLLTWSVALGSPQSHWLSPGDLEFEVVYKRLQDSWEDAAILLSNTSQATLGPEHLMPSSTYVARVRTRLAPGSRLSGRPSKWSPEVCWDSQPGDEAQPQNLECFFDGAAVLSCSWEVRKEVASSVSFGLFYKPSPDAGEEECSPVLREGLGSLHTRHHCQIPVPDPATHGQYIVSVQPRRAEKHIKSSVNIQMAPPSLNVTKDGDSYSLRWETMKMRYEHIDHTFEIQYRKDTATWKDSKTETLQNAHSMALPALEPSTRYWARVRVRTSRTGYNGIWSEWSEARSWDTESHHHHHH

[2] = biological target: T2, shCD131 V104A (human, UniProt P32927 17-438)
T2 construct: C-terminal 6xHis
T2 sequence: T1 sequence with A25S, V88A

[3] = biological target: T3, shCD131 T106A (human, UniProt P32927 17-438)
T3 construct: C-terminal 6xHis
T3 sequence: T1 sequence with A25S, T90A

[4] = biological target: T4, shCD131 Y421A (human, UniProt P32927 17-438)
T4 construct: C-terminal 6xHis
T4 sequence: T1 sequence with A25S, Y405A

Kd [1]: 56 nM
Kd [2]: 117 nM
Kd [3]: 5.8 nM
Kd [4]: 167 nM
B1: 9A2 Fab (Fab, V domains shown)
VH: EVQLLESGGGLVQPGGSLRLSCAASGFTFSHYHMLWVRQAPGKGLEWVSSIRSSGGFTYYADSVKGRFTISRDNSKNTLYLQMNSLRAEDTAVYYCARFYDSFFDIWGQGTMVTVSS
VL: DIQMTQSPSSVSASVGDRVTITCRASQGISSWLAWYQQKPGKAPKLLIYAASSLQSGVPSRFSGSGSGTDFTLTISSLQPEDFATYYCQQANSFPITFGQGTRLEIKR
notes: also called recombinant Fab of 9A2
